According to patent US7405286B2, “Stars—A muscle-specific actin-binding protein” (The Board of Regents of the University of Texas System, priority 2002, dated 2008):
“Also recorded” adds a separate entry of the source.

Experiments:
actin = test: Co-immunoprecipitation of Myc-tagged proteins with actin in COS cells; format: binding; conditions: anti-Myc immunoprecipitation, anti-actin Western blot
Description: Western Blot and Co-immunoprecipitation Assay. Immunoprecipitation and western blot analysis was performed as described previously (Lu et al., 2000). For immunoprecipitation, cells were incubated with 1 μg anti c-myc polyclonal antibody A14 (Santa Cruz). Western blots were performed with anti-actin monoclonal antibody C4 (1:100; Roche Molecular Biochemicals) or anti c-myc monoclonal antibody 9E10 (1:1000; Santa Cruse) followed by incubation with secondary antibody HRP-conjugated anti mouse-IgG (Santa Cruse, Vector). To detect signals, blots were incubated with ECL (Santa Cruz) for 1 min, and exposed to film (Eastman Kodak Co).

cytomegalovirus promoter = cytomegalovirus promoter reporter assay; format: cell-based; conditions: data not shown
Source text: (§1) STARS Expression Plasmids. STARS expression constructs were generated using the pcDNA3.1 mammalian expression vector (Invitrogen) which was modified to contain an amino-terminal Myc-tag. Constitutively active RhoA (L63) and C3 transferase in Prk5 were generously provided by Dr. Alan Hall (University College, London, United Kingdom). The SM22-luciferase reporter 1343 bp promoter has been previously described (Li et al., 1995). The smooth muscle α actin-luciferase reporter contained the 4 kb promoter region ligated into the pBL3basic vector (Promega). The ANF reporter contained the 638 bp promoter region (a generous gift from Dr. Mona Nemer, Universite de Montreal, Montreal, Quebec, Canada). The 4× cfos reporter contained four tandem copies of the cfos CArG box with flanking sequences, as described (Chang et al., 2001). CMV-lacZ (Promega) was used as an internal control for transfection efficiency.
(§2) Transient Transfections, Reporter Assays and Immunofluorescence Microscopy. COS cells were maintained in DMEM with 10% FBS. Eighteen hours after plating, the medium was changed to serum-free medium and transfections were performed at 50% confluency using FuGENE reagent-6 (Roche Molecular Biochemicals) following manufacturer's instructions. […] Cells were harvested 36 hr after transfection and their luciferase and β-galactosidase activity were measured.

SM22 promoter [1] = test: SM22-luciferase reporter assay in F9 cells; format: cell-based; conditions: low endogenous SRF expression
F-actin = test: Immunofluorescence / Phalloidin-TRITC staining of transfected COS cells; format: cell-based; conditions: transfected COS cells, Myc-tagged proteins
Description: (§3) Transient Transfections, Reporter Assays and Immunofluorescence Microscopy. COS cells were maintained in DMEM with 10% FBS. Eighteen hours after plating, the medium was changed to serum-free medium and transfections were performed at 50% confluency using FuGENE reagent-6 (Roche Molecular Biochemicals) following manufacturer's instructions. Each transfection used 0.15 μg of plasmid DNA for the reporter assays, and 0.5-1.0 μg immunohistochemistry. Cytochalasin D 2 μM (Sigma-Aldrich), and Y-27632 75 μM (Tocris) were added directly just after transfection. Latrunculin B 0.5 μM (dissolved in 10% ethanol, Calbiochem) was added 12 hr after transfection and 10% ethanol (final concentration 0.01%) was added to control wells. Cells were harvested 36 hr after transfection and their luciferase and β-galactosidase activity were measured.
For measuring immunofluorescence, cells were rinsed with PBS and fixed in 4% paraformaldehyde for 10 min on ice. After rinsing with PBS, COS cells were incubated in 0.1% Triton X-100 in PBS for 5 min on ice. For rat neonatal cardiomyocytes, 1% Triton X-100 in PBS was used. Cells were blocked for 20 min at room temperature in 0.5% BSA in PBS for COS cells and in 1% BSA plus 3% goat serum in PBS for rat cardiomyocytes. Then, cells were incubated with first antibody diluted in 0.5% BSA in PBS for 30-60 min at room temperature or overnight at 4° C. Anti c-myc monoclonal antibody 9E10 (Santa Cruz) was used at a 1:200 dilution. Other antibodies were anti α-actinin monoclonal antibody (1:400; Sigma-Aldrich), α-tubulin antibody (1:2000; Sigma-Aldrich) and anti-vimentin antibody (1:500; Sigma-Aldrich). Secondary antibodies were anti mouse/rabbit IgG FITC or Texas red (Vector) used at a 1:200 dilution incubated with or without Phalloidin-TRITC (1:500; Sigma Aldrich).

[2] = test system: E1b promoter linked to four tandem copies of the CArG box from the c-fos promoter; test: 4× cfos CArG box reporter assay in COS cells; format: cell-based
Source text: as §1, §2

[3] = test system: α-smooth muscle actin promoter; test: smooth muscle α actin-luciferase reporter assay in COS cells; format: cell-based
Source text: as §1, §2

SM22 promoter [4] = test: SM22-luciferase reporter assay in transiently transfected COS cells; format: cell-based
Source text: as §1, §3

[5] = test system: atrial natriuretic factor (ANF) promoter; test: ANF reporter assay in COS cells; format: cell-based
Source text: as §1, §2

B1: STARS: novel 375-amino acid muscle-specific actin-binding protein, expressed from a Myc-tagged expression vector (protein, UniProt Q8BUZ1 1-375, looked up)
Actin-binding Rho-activating …: MAPGEREREAGPAKSALRKVRTATLVINLARGWQQWANENSTKQAQEPAGWLPGATHDLPNAPKEAGPYQHAPKTLSPKPDRDGEGQHSEEATEVSHIKRKEVTRTVVSKAYERGGDVNYLSHRYENDGGVSEAIQPENDIDRILLSHDSPTRRRKCTNLVSELTKGWKVMEQEEPTWKSDSVDTEDSGYGGDMEERPEQDAAPVAPARIKRPLLSQANRYSETLNCKAHRKYSQVDNLKGRWQQWADEHVQSQKLNPFSDEFDYDLAMSTRLHKGDEGYGRPKEGSKTAERAKRAEEHIYREIMELCFVIRTMARHRRDGKIQVTFGELFDRYVRISDKVVGILMRARKHGLVHFEGEMLWQGRDDHVVITLLE
modifications: Myc tag
- co-immunoprecipitation with actin (actin): co-immunoprecipitated with actin
- activation of cytomegalovirus promoter (cytomegalovirus promoter): did not activate
- effect on the SM22 promoter (SM22 promoter [1]): minimal effect
- association with F-actin / actin stress fibers (F-actin): strongly colocalized with F-actin
- bundling of actin stress fibers (F-actin): induced stress fiber formation and bundling
- association with F-actin / actin stress fibers (F-actin; listed as STARS (wt)): strongly associates with F-actin
- bundling of actin stress fibers (F-actin; listed as STARS (wt)): induces extremely thick bundles
- bundling of actin stress fibers (F-actin; listed as Wild type STARS): induce actin bundles
- activation of E1b promoter with four c-fos CArG boxes [2]: activated
- stimulation of α-smooth muscle actin promoter [3]: weakly stimulated
- activation of SM22-luciferase / SRF transcription, in words (SM22 promoter [4]; COS cells, STARS and deletion mutants): activate SRF transcription
- activation of the SM22 promoter (SM22 promoter [4]; COS cells, STARS or RhoA (L63) expression vector alone): comparable levels
- increase of SM22 promoter activity by STARS (SM22 promoter [4]; COS cells, in the presence of CD (2 μM)): 18 fold
- responsiveness of SM22 promoter with mutated CArG boxes (SM22 promoter [4]; COS cells, mutSM22 reporter): abolished responsiveness
- stimulation of expression of SM22 luciferase reporter (SM22 promoter [4]; transiently transfected COS cells, STARS expression vector): 40 fold
- stimulation of ANF promoter [5]: did not stimulate; also recorded: could not activate
